Earlier results on 2 substances are cited in publication PMC2883863.

The target of one data set is Cys30 (UniProt position 49, FFSFFCPHCYQ). The conditions noted are these: not stated (quoted literature value for E. coli DsbA).
In the next data set the target is Cys32 (UniProt position 33, FWAEWCGPCKM). The note with it: not stated (quoted literature value for E. coli thioredoxin).

One may read the pKa as the pH at which an ionisable group is half protonated. Consider “Thiol:disulfide interchange protein DsbA (Escherichia coli)”, for which the pKa with Cys30 is 3.5.

Regarding Thioredoxin 1 (Escherichia coli), the pKa in the data set with Cys32 is 7.5.
